Experimental data reported in the DeepSol protein solubility set.

Assay: soluble on expression in E. coli; label from the status in PepcDB or PDB records

| Sequence | soluble on expression in E. coli |
| --- | --- |
| ISDLHPQLQPLAETFLRLCRDQGVDPLLICTWRSSEEQAQLYRRGRDLPGAIVTYARPGESAHNATLHGNPAARAFDVVPLLAGKPICDIDHPHWQVMGR | not soluble |
| LPTGIIIAATPLGNIGDASPRLVHALANATVVAAEDTRRTASLAAALGVEIKGQLVSNFDHNEQARVGKLIEAARTGTVLVVSDAGMPVVSDPGFALIDAAHDANIPVTCFPGPS | not soluble |
| MTLIPPVQAIAGTSAAATQALSPVATPNQALVNRFQALMQSSSPLPPAMQRVGNPSMMSRVVDVQNDGVRTIAEHIDAFSMQAPTMGLQEMAAQQIKLMHELTMVGFNLNVSVGVAQSGKNAVQTLVKNQ | not soluble |
| MRLIHLSDIHAGKNLGRVSRNEDVVYALNQVVDFCKENKPDLVLVAGDVFDKANPDNEAKEIIFDFFLKLHSLNIPSVVISGNHDSYEFMKSLKKLLQVIDVYVVPKPNLEECVLDVKGLKIACLPYPSERVLTRAGEDSKLSYAVLVEKAIKYLYEKVKDAPLKVLLSHLFIAGSKYTRTEREATITDYYAVEPSAIPEGFDYVALGHVHRYQRIEKAPTHVYYTGSLFQLDFSEAGQEKFFNFVELKEGEPPHVEAIKLSLKNPLHTFEINQENYAKELEKIKDVQGYIKVHLIVKDKTKMHLVAEKVKEALGEKLIKLELLTPEEAIKKRLEEEREIQKLNLLDLYRDYFKESYGREVPQEIIKTVSQLLEQVHES | soluble |
| TLDPNAQQTAYEQLSQSGYEGAVVALRPSTGEVLAMASSPSYDPNQIVDPATAEDAWAEYTSTEGAPLLNHATQESLPPGSIFKIITTAAALENGYSADSTVTAEAAVTLPGTNTTLTNYGGQTCAGGGTTTLLTAFQLSCNTAFVETGIDVGADALRASAEDFGVGQTYSLGLDNVPGGLGEIPDDAALGQSSIGQRDVQMNVLQAAVMAGTVSNGGVRMEPYLVSRVTGQDLSELSTHKPKSVGGVEPEIAEQLKTLMEASERNTSGYTGIQIASKTGTAEHGDENTPPHTWYVAFNNDIAVAVLVKDGGGFGTSATGGQVAAPIGRAVLQAAGGF | not soluble |
| VFLGKTSPDFNLGWSNSLSYKGFGLSFLINGRFGGVVTSSTQAILDRFGVSKASAEARDAGGVLLPGQGRVDAQSYYQLIGTGDYTTSGYYVYSATNIRLQELTLSYRFPDLWFKNVLKDVTLSFIANNPWMLYSKAPHDPELTPSVGTYGQGNDYFMQPSVRSFGFGIKFKL | not soluble |
| MVDEVAKKKSKKEKDKDSKLEKALKAQNDLIWNIKDELKKVCSTNDLKELLIFNKQQVPSGESAILDRVADGMVFGALLPCEECSGQLVFKSDAYYCTGDVTAWTKCMVKTQTPNRKEWVTPKEFREISYLKKLKVKKQDRIFPPETSASVALEHHHHHH | soluble |
| GGTAYWKNPDQFTAFNTGLHALLREKSYNFFLLGEPRADIYGDNPIGGEASQGMERLPFNTINKENVGISNYGDMYKIINQINQMIAKTTETTILTEATQNYYLGEAYGMRAYLYFHLLRSWGDVVLYLDYTEGQNLDLSNITKGVSPATEVMEQIKKDIQASENAFGSDYSFKLGRHFWSAAATQMLKGEAYLWSGRQMNGGNSDYTIAKNAFENVKKADVGLVTSSFKDIFSFENKKNKEMIFTIHNGKDEYEMWGGYYRMRLIPAQDKMVKIYCDENGNSFVGTPDAQLNGLTQLQVRREFYFKGFRNNDTRWTTSLKAVYKKDAQGVVSYFGPITYKFQGTMLEGGSTRSFLDDFPIYRYADCLLQLAMAKVLLGEDPTEEINAVRERAYGSKYFNEHKAEIAYPNDNDPEFYTDNKWMKPDNAGALEAILKERLREFMFEGKRWYDIRLLGWDYVHQYSSAEQSRLLWPIDAGTLTNNSALKQTPGYE | soluble |
| MGSDKIHHHHHHMKKIQLTNAHKEKLFQIPLFRDLPLNIKESLLDKLDFVIYAADKKEIVVTQGTPCNKLYVLLEGKLRTDIIDGLGNEVMIEYIIAPRTFATPHLFNSNNTLPATFTALEDSVVLMATKDSTFKVISQDPQVLHNFLCIAGNCNICTVSRLKPLSRKTVRERFIVYLFEHKKKDSLTVEIMHTQSQLAEYLNVSRPALSKEINKIIKEGLITMEGKKIEILNKMALEKYL | not soluble |
| MAYAYLFKYIIIGDTGVGKSCLLLQFTDKRFQPVHDLTIGVEFGARMITIDGKQIKLQIWDTAGQESFRSITRSYYRGAAGALLVYDITRRDTFNHLTTWLEDARQHSNSNMVIMLIGNKSDLESRREVKKEEGEAFAREHGLIFMETSAKTASNVEEAFINTAKEIYEKIQEGVFDINNEANGIKIGPQHAATNASHGSNQGGQQAGGGCC | soluble |
| MKGGRNRWVTAQESTLALASKCEQFDPDGITLYVFSGRFKRYENVTSAKVNQIFQENDPSGTTDLAAVLKHATDDYFQRKGAGKTKPNGETILVVTDGEPDDRKAVMRVIIEASRRMDKDEELAISFIQVGSDAQATRFLKVLDDELQGAGAKFDICDTVTMEDMEDLSLSEVLLNAITDLEHHHHHH | not soluble |
| LLLLLPQGGDVRGGPGVREPGQAPQDRGGRDRLLGRGERESPGSDASGGERYSSGGGDGGDGDGGSGGGGDGEEGEGGEEGDEGDGDEGGSGGDESGSGGGPRSMPLSTEGGGSHHKVSVSPVVHVRGLCESVVEADLVEALEKFGTICYVMMMPFKRQALVEFENIDSAKECVTFAADVPVYIAGQQAFFNYSTSKRITRPGNTDDPSGGNKVLLLSIQNPLYPITVDVLYTVCNPVGKVQRIVIFKRNGIQAMVEFESVLCAQKAKAALNGADIYAGCCTLKIEYARPTRLNVIRNDNDSWDYTKPYLGRRDRGKGRQRQAILGDHPSSFRHDGYGSHGPLLPLPSRYRMGSRDTPELVAYPLPQASSSYMHGGSPSGSVVMVSGLHQLKMNCSRVFNLFCLYGNIEKVKFMKTIPGTALVEMGDEYAVERAVTHLNNVKLFGKRLNVCVSKQHSVVPSQIFELEDGTSSYKDFAMSKNNRFTSAGQASKNIIQPPSCVLHYYNVPLCVTEETFTKLCNDHEVLPFIKYKVFDAKASAKTLSGLLEWKCKTDAVEALTALNHYQIRVPNGSNPYTLKLCFSTSSHL | soluble |
| MRRYLEHLMIKLSEKGVFLASNNEIIAEEHFTGEIKKEEAKKGTIAWSILSSHNTSGNMDKLKIKFDSLASHDITFVGIVQTAKASGMERFPLPYVLTNCHNSLCAVGGTINGDDHVFGLSAAQRYGGIFVPPHIAVIHQYMREMMAGGGKMILGSDSHTRYGALGTMAVGEGGGELVKQLLNDTWDIDYPGVVAVHLTGKPAPYVGPQDVALAIIGAVFKNGYVKNKVMEFVGPGVSALSTDFRNSVDVMTTETTCLSSVWQTDEEVHNWLALHGRGQDYCQLNPQPMAYYDGCISVDLSAIKPMIALPFHPSNVYEIDTLNQNLTDILREIEIESERVAHGKAKLSLLDKVENGRLKVQQGIIAGCSGGNYENVIAAANALRGQSCGNDTFSLAVYPSSQPVFMDLAKKGVVADLIGAGAIIRTAFCGPCFGAGDTPINNGLSIRHTTRNFPNREGSKPANGQMSAVALMDARSIAATAANGGYLTSASELDCWDNVPEYAFDVTPYKNRVYQGFVKGATQQPLIYGPNIKDWPELGALTDNIVLKVCSKILDEVTTTDELIPSGETSSYRSNPIGLAEFTLSRRDPGYVSRSKATAELENQRLAGNVSELTEVFARIKQIAGQEHIDPLQTEIGSMVYAVKPGDGSAREQAASCQRVIGGLANIAEEYATKRYRSNVINWGMLPLQMAEVPTFEVGDYIYIPGIKAALDNPGTTFKGYVIHEDAPVTEITLYMESLTAEEREIIKAGSLINFNKNRQM | not soluble |
| KFGASQDVVKWQEVTSNLPELSKKLMSSSSEPLSDDEMADLTLALRTRLHYQPEDSTGWLLLGRIALANRDVTTAIDSMKKSYALEPKDPDVMLGYAQALMLSQDEMDQATARSLLGKLMQQDYVDLRVFSLLAFDAFERKDYPAAIKYWGIMQQMIGPDDSRYESLSRSIDHARKQMGEVVSPDKSVAVTINVAPEAQLDPNAVLIVSIHRADGSPMPVAAARYPLGSFPRTVVLDDGNAMMQGQKLSSLEKLIVRVRADSDGNVATRDQDWHGESDVVEFGQPVAVTIDKQYQ | not soluble |
| MKVLFAKTFVKDLKHVPGHIRKRIKLIIEECQNSNSLNDLKLDIKKIKGYHNYYRIRVGNYSIGIEVNGDTIIFRRVLHRKSIYDYFP | soluble |
| MGSDKIHHHHHHMKEYDKLSIRLVQILSKFNNGESLSAQELAQEFNVDTRTIQRDLNERLTFMPIKKENGRYVLESFALGKLSFKDIQNFATLSGIAELYPKLDQGFIVDLLSHRVNKVLMVKNEGFQKVDYELFKDLSVAILKHNVLNFFYKEKERQIKPYKLVNYKGIWYLLGDENDKLKHFNLDKISKLRTKNENFIPNEKLEEQIQNDPNIWLGESKEVILKLDKNAKEYFFRKEILSNYQIIDKDETSYTLSTQVSYEDEILHLVKQWIPYIKILAPIELKIRLEDILKSYLNNLSK | not soluble |
| MSLNPNYSIFAELYDELFDPNMYLSWNGFVQDNSRNNRILDLAGGSGKLAVLLTKSGYQVSILDLSSQMLSLAKQRAENNNFSFDLFQANMAQNWHLNKRFPLISCFADSLNYLSNIGETKRTFFEVFNHLEKNGKFLFDVITPYQVNVVYRNYMYNNDDDPEKIFMWTSFPGDIKNSVDHDLKFFVYQEGIDAFKMVREVHHEQTYPPEKYLSLLKEIGFRNIHLTSDFGRGKITRDTTRAFFVAEKEGHHHHHH | not soluble |
| MSRDLLGLEGKIVMVTGAGRGFGRAIAHGYGRNGATVIAVDPDVELATGVASEVEALGATAIPIRGDMSVVLDVTSTFEKVEELFGLLDGIVHVTTAESKTPFVELLEGEWYDLMSQDVKSSLYVLQQGLRHLAGGGFVTIVLPPAARIEPHTVSVRKAVEGLIEGATRTFPGVRVNGVVPSRDPVGDPYDLPLVRAALGLGSMVSEGIRGVVLEVQLPEPPLEFEPYAALRELP | soluble |
| MGSDKIHHHHHHMPKTISEQNLLRLIDTLVNEGKRVIGPKAAGTMTLYEPLATGEELNLGELPRRSAKETFFPLCETILTYERDREGVRVTDVDPGAIPETVLVAARPCDVAAAPVLDSVFSWDYQDEFYLSRRGKTTIIGLACARADDACFCTAVGLSTNDTKGSDLFLTTLTGGGYRCDVITDKGMALLAAHGGLFAEGDGTPAPLAEPALGKLDLEKIKQWLDNHFEDPLWEEIAERCAGCGACAFLCPACHCFDINDEGGEKKGARRKSWDACGFGKFTNHASGHNPRDVQPQRYRNRIMHKFKYYVDKFDQRLCTGCGRCIRACPVGIDIAEILSAIGTRDQGPGTGKD | not soluble |
| MSQEFVGRWKLIHSENFEEYMKEVGVGLITRKAAANLKPTLEIKVEGDLWYSNQYSTFKNTTLSFKLGQEFDETTPDGRTVKSVVNFENGKFIHIQKKIKDSDKESIITRWLEGDKLITTLESGSVVSRREYVRE | not soluble |
| MSKFWSPFVKDLVPYVPGEQPKLSRLVKLNTNENPYGPSPQALAAMQAELNDDLRLYPDPNGERLKQAVAAHYGVQANQVFVGNGSDEVLAHIFHGLFQHDLPLLFPDVTYSFYPVYCGLYGIAHEKIALDERFRIRVEDYARPNGGIIFPNPNAPTGCLLPLDAIEAMLKASPDSVVVVDEAYVDFGGESAIALVDRYPNLLVTQTLSKSRSLAGLRVGLAVGHADLVEALERIKNSFNSYPLDRLAIAGAAAAFEDDAYFRRTCQAVIDSREALSASLQALGFEVLPSAANFVFARHPRHDAGQIASTLREQGVIVRHFKQARIDQFLRITIGSPEQNQALLDALHFLK | not soluble |
